Data set [1] deals with c-KIT intracellular domain (human, UniProt P10721 544-976). In words: EMSA; 10 mM Tris-HCl, 150 mM NaCl, 5 mM KCl, pH 7.4; EMSA room temperature 30 min, 12% PAGE in TBE; SPR 25 C (RB1 SPR with 650 mM NaCl). To be noted: protein: recombinant; label: 5'-FITC; G4. Background: Mobility shift assays separate free from complexed probe on a gel.
Another data set concerns the target T1, RB1, human (Homo sapiens (Human), UniProt P06400).
T1 sequence: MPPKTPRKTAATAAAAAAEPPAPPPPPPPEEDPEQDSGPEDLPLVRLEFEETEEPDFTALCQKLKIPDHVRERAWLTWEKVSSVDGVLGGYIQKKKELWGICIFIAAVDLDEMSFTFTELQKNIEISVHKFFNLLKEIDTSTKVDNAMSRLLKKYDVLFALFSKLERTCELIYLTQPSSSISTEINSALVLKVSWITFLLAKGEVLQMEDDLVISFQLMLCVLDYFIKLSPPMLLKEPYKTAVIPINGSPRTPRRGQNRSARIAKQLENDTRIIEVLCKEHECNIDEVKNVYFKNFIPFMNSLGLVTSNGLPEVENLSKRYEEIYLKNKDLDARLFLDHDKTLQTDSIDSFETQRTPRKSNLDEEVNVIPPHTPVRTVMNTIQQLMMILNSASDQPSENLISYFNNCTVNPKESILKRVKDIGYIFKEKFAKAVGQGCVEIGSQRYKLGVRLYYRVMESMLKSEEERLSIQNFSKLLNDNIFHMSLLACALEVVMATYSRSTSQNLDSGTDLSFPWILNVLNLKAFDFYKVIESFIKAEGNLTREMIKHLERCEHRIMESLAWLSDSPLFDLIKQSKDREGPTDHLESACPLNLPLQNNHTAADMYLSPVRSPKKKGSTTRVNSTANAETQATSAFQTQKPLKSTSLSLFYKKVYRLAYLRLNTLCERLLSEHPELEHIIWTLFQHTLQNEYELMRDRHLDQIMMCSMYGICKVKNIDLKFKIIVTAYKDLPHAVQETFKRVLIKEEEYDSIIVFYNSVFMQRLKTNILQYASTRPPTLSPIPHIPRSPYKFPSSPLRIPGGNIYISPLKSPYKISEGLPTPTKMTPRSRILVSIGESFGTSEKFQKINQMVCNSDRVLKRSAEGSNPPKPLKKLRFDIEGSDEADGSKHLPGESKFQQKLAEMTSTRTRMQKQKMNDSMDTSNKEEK
Kind of data set: SPR; 10 mM Tris-HCl pH 7.4, 650 mM NaCl, 5 mM KCl, 25 C; DNA on SA chip, Scatchard. To be noted: label: 5'-biotin.

For a further data set, the target named is VEGF165 (human, UniProt P15692-4 27-191). In words: SPR; 10 mM Tris-HCl, 150 mM NaCl, 5 mM KCl, pH 7.4; EMSA room temperature 30 min, 12% PAGE in TBE; SPR 25 C (RB1 SPR with 650 mM NaCl). As to conditions: protein: recombinant, chain copies: 2. Background: In SPR one partner is held on a chip, and binding of the other changes the refractive index at the surface.
Sequence of VEGF165 (P15692 other isoform, or with tags, fused parts or gaps): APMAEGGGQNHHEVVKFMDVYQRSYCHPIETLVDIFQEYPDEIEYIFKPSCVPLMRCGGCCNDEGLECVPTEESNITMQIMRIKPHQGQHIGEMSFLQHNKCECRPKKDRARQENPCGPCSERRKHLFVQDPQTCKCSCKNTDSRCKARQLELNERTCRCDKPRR

The target of the next data set is PDGF-AA (human, UniProt P04085 87-211). Described as above. As to conditions: protein: recombinant, chain copies: 2.
A further data set concerns the target VEGF121 (human, UniProt P15692-9 27-147). Kind of data set: EMSA; 10 mM Tris-HCl, 150 mM NaCl, 5 mM KCl, pH 7.4; EMSA room temperature 30 min, 12% PAGE in TBE; SPR 25 C (RB1 SPR with 650 mM NaCl). As to conditions: protein: recombinant, chain copies: 2.
The target in the next data set is VEGF121, human (Homo sapiens (Human), UniProt P15692 27-147). In words: EMSA; 2.6 uM VEGF121. To be noted: chain copies: 2.
Sequence of VEGF121, human (P15692 other isoform, or with tags, fused parts or gaps): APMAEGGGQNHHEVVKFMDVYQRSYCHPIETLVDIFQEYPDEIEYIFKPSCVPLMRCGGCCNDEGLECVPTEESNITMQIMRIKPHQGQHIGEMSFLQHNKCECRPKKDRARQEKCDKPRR
A further data set deals with VEGF165, human (Homo sapiens (Human), UniProt P15692 27-191). In words: SPR; 10 mM Tris-HCl pH 7.4, 150 mM NaCl, 5 mM KCl, 25 C; protein amine-coupled on CM5. As to conditions: chain copies: 2.
The target in a further data set is PDGF-AA, human (Homo sapiens (Human), UniProt P04085 87-211). The data set is described as above. As to conditions: chain copies: 2.
Setting [2] is: label: none (SPR), not expected to form G4.
Setting [3] is: label: 5'-TAMRA (gel shift), parallel G4, monomeric and multimeric bands.
Where [4] appears, read: label: 5'-TAMRA (gel shift), 5'-biotin (SPR to RB1), antiparallel G4.
The mark [5] stands for this setting: label: 5'-FITC (gel shift), none (SPR), parallel G4.

The record followed here is publication PMC3672139, “Aptamer Selection Based on G4-Forming Promoter Region”.

Sequence of c-KIT intracellular domain (P10721 544-976): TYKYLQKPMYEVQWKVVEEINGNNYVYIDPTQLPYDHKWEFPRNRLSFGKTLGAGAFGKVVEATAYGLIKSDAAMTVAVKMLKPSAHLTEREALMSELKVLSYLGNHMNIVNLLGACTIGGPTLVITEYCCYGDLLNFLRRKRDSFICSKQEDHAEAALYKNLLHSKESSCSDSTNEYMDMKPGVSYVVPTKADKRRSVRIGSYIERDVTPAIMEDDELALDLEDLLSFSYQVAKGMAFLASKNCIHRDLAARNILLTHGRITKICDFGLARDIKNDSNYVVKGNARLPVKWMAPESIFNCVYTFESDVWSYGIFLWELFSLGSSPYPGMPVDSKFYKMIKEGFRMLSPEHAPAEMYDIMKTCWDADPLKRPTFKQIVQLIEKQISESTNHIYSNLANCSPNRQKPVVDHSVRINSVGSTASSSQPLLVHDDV

With CGGGCGGGCGCGAGGGAGGGG (structured_DNA) [c-KIT G4-1], the binding result in data set [1] was “no binding”. Turning to CGTTTTGTTTTGGGCGGC (ssDNA) [RB1 G4 mutant], in the data set with RB1, human, the binding result is recorded as “no binding”.

As for GTTTCTTTCCGGTTTCGTTTTCCCGGCGGGGCGG (ssDNA) [VEGFA G4 Mut.], the binding result with VEGF165 (setting [2]) is “no binding”. Regarding GGAGGCTTTTTTTTTTTTTCTTTTTCTTTTTCTTTTTATTTTCGCGGC (ssDNA) [PDGFA G4 Mut.], the binding result with PDGF-AA (setting [2]) is recorded as “no binding”. On to GGAGGCGGGGGGGGGGGGGCGGGGGCGGGGGCGGGGGAGGGGCGCGGC (structured_DNA), for which the Kd (commonly the equilibrium constant for the complex coming apart) in the data set with VEGF165 (setting [3]) came out at 10 nM. In addition, the binding result in the data set with VEGF121 (setting [3]) was “no binding”. In the case of GGAGGCGGGGGGGGGGGGGCGGGGGCGGGGGCGGGGGAGGGGCGCGGC (structured_DNA, G-quadruplex (promoter-derived)), in the data set with VEGF121, human (label: TAMRA), the binding result was “no binding”. The affinity in the data set with VEGF165, human, expressed as Kd, was 10 nM.

CGGGGGGTTTTGGGCGGC (structured_DNA): the Kd in the data set with VEGF165 (setting [4]) was determined as 300 nM. For the same molecule, the binding result with PDGF-AA (setting [4]) and in the data set with VEGF121 (setting [4]) was “no binding” in each case. Regarding AGGGAGGGCGCTGGGAGGAGGG (structured_DNA) [c-KIT G4-2], in data set [1], the binding result is “no binding”. CGGGGGGTTTTGGGCGGC (structured_DNA, G-quadruplex (promoter-derived)): the binding result in the data set with VEGF121, human (label: TAMRA) is “no binding”; in the data set with PDGF-AA, human it was “no binding”. In the data set with VEGF165, human, this molecule came in with a Kd of 300 nM. For the molecule GGTTGGTGTGGTTGG (structured_DNA, G-quadruplex) [TBA], the binding result in the data set with VEGF165, human is listed as “no binding”; in the data set with PDGF-AA, human, “no binding”.

Consider GGGGCGGGCCGGGGGCGGGGTCCCGGCGGGGCGG (structured_DNA), for which, in the data set with VEGF165 (setting [5]), the Kd came to 170 nM. In addition, the binding result with PDGF-AA (setting [5]) and in the data set with VEGF121 (setting [5]) was “no binding” throughout. For the molecule GGGGCGGGCCGGGGGCGGGGTCCCGGCGGGGCGG (structured_DNA, G-quadruplex (promoter-derived)), the binding result in the data set with VEGF121, human (label: FITC) is on record as “no binding”; with PDGF-AA, human, “no binding”. For the molecule GGTTGGTGTGGTTGG (structured_DNA) [TBA (15-mer thrombin-binding aptamer)], the binding result with VEGF165 (label: none, G4) is “no binding”; with PDGF-AA (label: none, G4), “no binding”.
